Assay: soluble on expression in E. coli; label from the status in PepcDB or PDB records

| Sequence | soluble on expression in E. coli |
| --- | --- |
| MAHHHHHHMVQVVHRHGERSALINDNKTEICGTLYPCGELTGERVKMVRAIGEFARSRYNDLSLVESPLCPSTQYNSSLVYTRPTHTQRTIQSATAFLHSLFQDDYFYPVAYSVNRTTDMLLSTDAVPSVVGRSWLDNQAVYPGLMEVNAAWFKYVFSWNHTSKLDLTQGSASQNLEQAMLANINAPPRLSPSYNMFHYSAHDTTVTPFAATFGDQGNTTMHPPFAVTSFVALLQDTADASGWYVRLIRSNPVKVASGTYVFRQTGIAVHCFDATGNRYRVSTGICPLDDFRRMVDHSRPAVADGHSAMTHAQYSNMGSPRTIADNKLVPLRCWIYRYACPSKSCPGSYILSAVDHQCYPQTDIPNSSSSEGTSSSDVSSFKKPANWMPRVSSPEKSRHIAADILRGVTNGVTVGAAVRKHDEYRRHC | not soluble |
| MAHHHHHHMYGDKGPPKGYSVPRFDTNASKRCQTCSSTVHWTFECPLKNSATLSAKKSAATTVKLSPSQMLRYGIKQKSANFVSEPTEREVFDAELRELRSVLTAEVRQELKAKKSAAHKSGNDCKKHEAPLPSAAPKKEPPSDSVTMKTERTEEEE | soluble |
| MAHHHHHHMYSFSPVTPGKTAASPANDLVSSSSNSNGELVDDIKESLDRIEKLLNRGQQLLYGDGAADGKKAYSEGAAVTPDGEPADADTVSIPTARHVDANCGSYQLPSDTHVGLPLRGTGTSAAANASLYPQSTSQHSASHFQRNSEKLYQRLSGESNHRYPSQNGSNRSSLHARPHANRASVGSNRLPPGFKDKVLVSVRGRRIVQIQKEGGIVPNFEEGLDAHDTPQNFTIEELKARIHRELEEYRRLGPLMNRYKSFRRRQCVTVAKRAPMMKIASRTFTAATTAALGSKLVKHIPAPASASTPQGAANRFGVHAAAATTKTGPHAAPASRQAAKSTNGTPARSTLRNSHERGRVETRRADRGSHPPMMAPPGNSTYSAYYNPLQMSGGSRNASCELSLKQTAGCSDVVPQHARNVSKSKPRTTEPQDDMEEASLPDSMEDCDASQPYVAPLDLSVIKK | not soluble |
| MAHHHHHHSGTVTDDYLANNVDYASGFKGPLPMPPSKHIAIVACMDARLDVYRMLGIKEGEAHVIRNAGCVVTDDVIRSLAISQRLLGTREIILLHHTDCGMLTFTDDDFKRAIQDETGIRPTWSPESYPDAVEDVRQSLRRIEVNPFVTKHTSLRGFVFDVATGKLNEVTP | soluble |
| MAHHHHHHSLIKSMTGFSRVEKVSGPYQFRVEMKSLNSKGLNIINQLPGYLSMKEIELNNLVQEYVSRGKVQTRVQVKFLEPPKVLEIDKNVVRAYYSMLDEIVGELSLPEPVKLSDLLNFREVFRIELSDEEIENIWNHLVPILREALEKLVEERKKEGQKIGADLKRILEDLSSRVEEIEKISDQLPALYREKIKEEVEKILPQDVSVKEDILENHVAFMATKADIREEITRLRSHIKRALELIESDEPVGMNLDFLGQEMLRELNTILSKSISGEITSLALEGKVLVSQFREQIQNVEEG | soluble |
| MAHHHHHHSLKDKPLKLTVEKLVYGGYGFSRLNGKAVFVRFASPKELVEAKVVKEKKDYTEAVVTKVLISSPARRKAPCPYYGECGGCQIQHLNYEEQLRSKKDILLESLERIGKIKEVPYEGEIPSKKEFNYRVRVQFKIQENRVGFYRWDVKEVVDVEECLLAHERINELIPHIREVLKVIKDLQEVHVNYSPTRDEATLKFVTITHTDEKLLQNILENVLPEWVVGIGDYGKVGNSLVKRYKVGREHIFMDVGKWQYRVSNDSFFQVNYTLWEDFLKEVLDFSESYKKGLDLHCGVGFFTIPLSEQGNFIEGADANPSAIKDAEYNAKINNRDNVIFEEATAFKHLKRRIGEVINLVVVDPPRSGLLREERDLLLKNKPDKIVYISCNPTTFARDLKILTKGGYELKRLKLIDNFPQTYHIESIALLEVKDEG | soluble |
| MAHHHHHHSLKILFVAAEGAPFAKTGGLGDVIGALPKSLVKNNNEVSVILPYYDVVDAKFGDQIEDLFYFFTNVGWRREYVGIKHIFRDGVDFYFIDNKHYFYRGQIYGEFDDGERFAYFQLAALEAMEKIQFIPDILHVHDYHTAMIPYLLKEKYHWINAYHGIKTVFTIHNIEFQGQFNPSMLGELFGVGDERYRDGTLRWNDCLNWMKAAVLYADRVTTVSPSYAKEIMTPEFGKGLDQIMRMESGKLSGVVNGIDTDLFDPETDPHLAVHFSKDDLSGKAKNKAALQERVGLPVREDVPLVGIVSRLTDQKGFQLVVDQLNTMMQLDLQIVLLGTGYADFENAFAWFGHAYPDKMSANITFDLELAQQIYAASDIFLMPSAFEPCGLSQMMAMRYGTLPLVHEVGGLRDTVIPYNEFEKTGTGFGFQDFSGYWLTKTLEAALDVYYNRKEDWKILQKNAMTTDFSWDTASQSYEHLYKELAEG | soluble |

Source: the DeepSol protein solubility set
